# Reference: the RNAGym collection of RNA variant scans (doi:10.7554/elife.90254)
# B1: LINE1-full (parent)
# chain: UACGUAGGUGGUUUUCCCCUGAUAGUGCUAAGGGGGCCUGGAAGUUUGGACUGGGCAGAGCUCAACACAGCGUGGCAAAGUGGCUGUGGCUAGACUGCCUCUCUGGAUUCCUCGUCACUCAGCAGGGCAUCUCUGAGAGAAAUGCC
# Variants of: B1
# Experiment: self-cleavage, relative activity (ratio to wild type); higher = more cleavage; in vitro, sequencing; the parent is a self-cleaving ribozyme
row,Variant,self-cleavage
1,A107G U109C,1.14
2,U112C G127A,1.35
3,U5G A141G,0.49
4,A64C U104A,0.28
5,A57G U100A,0.3
6,U112A U132A,1.69
7,G54A A141G,0.8
8,U20A C66U,0.02
9,U96C A141G,0.18
10,U12A U52C,1.06
11,U9A C99A,0.67
12,G83A U108C,0.56
13,U73C A79G,1.79
14,U26G U85C,0.14
15,A64G A77U,0.23
16,G8A C131A,0.51
17,G72A A92U,0.69
18,U20A U47A,1.07
19,A67U U134A,0.08
20,G33A U100C,1.28
21,U46A A124G,0.8
22,A77U C113A,0.92
23,U115G A141G,1.25
24,G60A C113U,0

row,Variant,self-cleavage
1,G40A U81A,1.71
2,G25U A59G,0.18
3,G58U U81C,0.05
4,A22U C118U,1.47
5,C110U G127A,1.35
6,C51A U100C,1.93
7,A6U C18U,0.84
8,U15A A43U,0.87
9,U102C G105A,2.14
10,C61U A124U,0.03
11,U104A A107U,1.31
12,U87A C98U,0.05
13,G27U U134A,1.29
14,A92U A138G,0.75
15,G97A,0.11
16,G10U,1.26
17,U104C U108C,2.07
18,C76A U81G,0.33
19,U13C U20C,1.06
20,U15A A77U,0.98
21,U1C G48A,0.9
22,A43U G135U,1.43
23,U29C U102C,1.1
24,U47G U130C,1.24

row,Variant,self-cleavage
1,G44U U115A,1.17
2,C16A A22U,1.21
3,A57U A67U,0.02
4,G54A U143A,0.45
5,A42G U130C,1.57
6,A67G U119A,0.31
7,U104A U115C,1.42
8,U13C C66U,0.14
9,U20C G49A,1.54
10,A24G U143C,1.12
11,U52C C101G,1.31
12,G70C U112C,0.14
13,A65G U115A,0.04
14,U45C A78U,1.43
15,C37G U45C,1.6
16,G83U U85A,0.07
17,U47A U112C,1.15
18,C90G A121U,0.02
19,C103A U143C,1.1
20,A107G C110A,1.13
21,A77U U130C,1.56
22,A67G A124U,0.49
23,U20A U62A,0.07
24,G21A C120A,1.11

row,Variant,self-cleavage
1,A67G U102A,0.99
2,G83A A138G,0.73
3,A64U U134C,0.51
4,G74U,1.4
5,U52C U132C,1.75
6,C38U A94G,0.29
7,U9C G21A,1.32
8,A30U U104A,1.93
9,U23C U39A,1.2
10,G60A A138U,0.05
11,A2U U9C,0.7
12,G35U A65U,0.12
13,U87A A117U,0.04
14,C19A U112C,1.55
15,G36A U52A,1.21
16,C113A U134C,0.33
17,C116A U143C,0.71
18,G80A G144A,1.66
19,A59U U85C,0.16
20,A92U U119A,0.72
21,G82A U87C,0.17
22,C51U A59G,0.09
23,U13C A57G,0.76
24,G106U U130C,1.29

row,Variant,self-cleavage
1,C90U U108A,0.05
2,A43G U104G,1.78
3,A43G U104C,1.68
4,U26C A43G,1.43
5,U130G A140G,1.1
6,G7A G54A,0.4
7,U87A A107G,0.1
8,U12C A24G,1.13
9,U14A A77G,1.39
10,A30U A43U,0.58
11,C71U U134A,0.36
12,C19U A79G,0.97
13,U20A G139A,0.53
14,U108C A121G,1.68
15,A94C A129G,0
16,A2G A30U,0.85
17,A50G G126U,0.76
18,G33U G75U,0.91
19,U29C U81C,1.27
20,C133A A142G,1.4
21,A22U A136U,1.04
22,U104A U108A,1
23,G137A,1.19
24,U115C A129G,1.64

row,Variant,self-cleavage
1,A30G A43U,1.5
2,A50G G105A,0.43
3,A77U U85A,0.07
4,A69U C131U,0.03
5,A124C A142G,0.53
6,U134G,1.46
7,A6G A22U,1.11
8,A42C U100C,1.25
9,U5A A79G,0.87
10,A67U A77U,0.04
11,A24G U100C,1.32
12,U52G U143A,1.32
13,A31U U39G,0.93
14,U62C U91C,0.04
15,A59U A136U,0.87
16,A107U U130C,2.08
17,A2G A6G,0.68
18,U87A G122A,0.09
19,C38U U46C,1.51
20,A79G C90A,0.04
21,G83U,0.86
22,U23C A43G,1.11
23,U23C A43U,1.06
24,U1C U119C,0.78

row,Variant,self-cleavage
1,G60A G105U,0.01
2,U46C G105A,1.16
3,A65U G82U,0.15
4,U132A A142G,1.41
5,G60A U96A,0.03
6,A31G U73A,0.79
7,C71U A129G,0.91
8,C28U A64G,0.16
9,A121G A124G,0.97
10,G72U C76U,2.1
11,A65G C76U,0.02
12,U52C U130A,1.04
13,A67C G72U,0.06
14,G25A A140G,1.49
15,U115G U119A,1.36
16,A22U A92G,0.05
17,A94C U130C,0.09
18,U62C C120U,0.06
19,A57U A121G,0.15
20,A24U U39C,1.47
21,A30G A124G,0.91
22,A65U U100C,0.16
23,G89A A117G,0.05
